Laboratory results published in patent CN115607664A (GENOR BIOPHARMA CO LTD, dated 2023).

Biological target: T1, PD-1 (UniProt Q15116 25-288, limits assumed)
T1 construct: whole, on cells; also called Jurkat/PD-1细胞表面的PD-1
Experiment: Jurkat/PD-1 + CHO/PD-L1 NFAT-luciferase reporter blocking assay

T1 sequence (Q15116 25-288 limits assumed): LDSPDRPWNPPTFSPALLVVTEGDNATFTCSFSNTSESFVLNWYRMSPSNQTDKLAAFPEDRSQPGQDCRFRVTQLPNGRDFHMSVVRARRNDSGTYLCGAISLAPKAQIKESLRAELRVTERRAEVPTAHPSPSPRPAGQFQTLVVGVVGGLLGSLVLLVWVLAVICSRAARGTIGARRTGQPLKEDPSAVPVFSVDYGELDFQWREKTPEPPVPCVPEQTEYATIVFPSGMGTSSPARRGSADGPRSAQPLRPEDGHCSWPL

B1: G-Ab1 (antibody, human IgG4 S228P, kappa, V domains shown)
VH: QIQLVQSGSELKKPGASVKVSCKASGYTFTNFGMNWVRQAPGQGLKWMGWISGYTREPTYAADFKGRFVISLDTSVSTAYLQISSLKAEDTAVYYCARDVFDYWGQGTLVTVSS
VL: DIVLTQSPASLAVSPGQRATITCRASESVDNYGYSFMNWFQQKPGQPPKLLIYRASNLESGVPARFSGSGSRTDFTLTINPVEADDTANYYCQQSNADPTFGQGTKLEIKR
notes: An IgG4 isotype control was used alongside it; also called 抗PD-1抗体; G-Ab1抗体
B1: binds.
